According to patent US5354664:

Key:
[1] = target: bovine thrombin (bovine) (UniProt P00735)
[2] = target: bovine thrombin (bovine) (UniProt P00735); remark: listed apart in the source
[3] = target: bovine thrombin (bovine) (UniProt P00735); remark: listed apart in the source
[4] = target: human fibrinogen (human) (UniProt P02671)
[5] = target: bovine fibrinogen (bovine)

Chain of human urine derived thrombin-binding substance obtained using a recombinant DNA technique (r-UTM) (receptor) (chain): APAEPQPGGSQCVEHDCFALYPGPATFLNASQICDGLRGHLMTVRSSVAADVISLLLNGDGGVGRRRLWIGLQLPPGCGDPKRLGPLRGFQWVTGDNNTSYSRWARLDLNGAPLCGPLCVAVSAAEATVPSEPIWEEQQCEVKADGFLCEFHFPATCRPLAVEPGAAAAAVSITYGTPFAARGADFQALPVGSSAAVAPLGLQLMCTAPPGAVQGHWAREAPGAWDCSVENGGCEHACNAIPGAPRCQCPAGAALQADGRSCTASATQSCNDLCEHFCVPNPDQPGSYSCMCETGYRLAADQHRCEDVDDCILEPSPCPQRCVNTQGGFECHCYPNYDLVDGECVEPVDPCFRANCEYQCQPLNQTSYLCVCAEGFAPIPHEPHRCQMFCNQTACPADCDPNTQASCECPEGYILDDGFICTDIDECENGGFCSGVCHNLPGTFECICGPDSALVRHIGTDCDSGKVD

Substance: human antithrombin III (from UniProt P01008)
- clotting time, control, ATIII (+) [1]: 49.5 s

Substance: human urine derived thrombin-binding substance obtained using a recombinant DNA technique (r-UTM) (receptor)
- clotting time, ATIII (+) (human antithrombin III 250 µg/ml) [1]: 80.8 s
- clotting time, ATIII (-) [1]: 61.8 s
- IC50 (time required for the coagulation) [2]: 80 nM
- Coagulation time [3]: 29.6 s

Substance: bovine thrombin (from UniProt P00735) (enzyme)
- clotting time, control, ATIII (-) [4]: 43.3 s
- Coagulation time (sec), control [5]: 28.1 s
